Reference: patent US6740739B1, “Substitutional variants of APO-2 ligand” (Genentech, Inc., priority 1998, dated 2004)

T1: OPG (Homo sapiens, UniProt O00300)
T1 construct: made in house
T1 sequence (O00300 22-401): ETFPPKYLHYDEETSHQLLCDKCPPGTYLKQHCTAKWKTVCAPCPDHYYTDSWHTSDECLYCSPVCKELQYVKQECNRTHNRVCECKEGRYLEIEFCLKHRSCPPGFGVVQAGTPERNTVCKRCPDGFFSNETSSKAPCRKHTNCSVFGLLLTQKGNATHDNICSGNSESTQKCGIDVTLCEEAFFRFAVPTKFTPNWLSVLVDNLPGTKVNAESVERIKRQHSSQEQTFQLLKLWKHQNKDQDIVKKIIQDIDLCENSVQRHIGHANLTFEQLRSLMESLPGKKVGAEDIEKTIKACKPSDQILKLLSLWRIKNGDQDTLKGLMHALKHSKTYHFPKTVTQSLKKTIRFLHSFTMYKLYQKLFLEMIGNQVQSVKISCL

T2: DcR2 (Homo sapiens, UniProt Q9UBN6)
T2 construct: Each of the Apo-2L receptor proteins were prepared as immuno adhesin sessentially as described in Ashkenazi et al; made in house
T2 sequence (Q9UBN6 56-211 limits assumed): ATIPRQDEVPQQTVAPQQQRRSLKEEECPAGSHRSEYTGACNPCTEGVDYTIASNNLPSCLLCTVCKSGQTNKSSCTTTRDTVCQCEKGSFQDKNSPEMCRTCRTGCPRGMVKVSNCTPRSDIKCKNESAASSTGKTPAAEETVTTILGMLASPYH


Legend:
DR4 = molecular target: T3, DR4 (Homo sapiens, UniProt O00220); experiment: BIAcore kinetic binding analysis; conditions: IgG-receptor fusion DR4 immobilized; significant = >2-fold; FIG. 19
T3 construct: Each of the Apo-2L receptor proteins were prepared as immuno adhesin sessentially as described in Ashkenazi et al; made in house
T3 sequence (O00220 24-239 limits assumed): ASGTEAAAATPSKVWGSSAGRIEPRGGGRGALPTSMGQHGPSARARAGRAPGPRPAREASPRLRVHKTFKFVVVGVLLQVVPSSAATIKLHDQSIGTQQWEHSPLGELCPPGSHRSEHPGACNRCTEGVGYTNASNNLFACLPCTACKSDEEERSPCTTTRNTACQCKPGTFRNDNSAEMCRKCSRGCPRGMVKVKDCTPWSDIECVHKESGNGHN
Method: (§1) For comparison, Apo-2L, consisting of amino acids 91-281 was also tested in the BIAcore for binding to the IgG-receptor fusion molecules. Each of the Apo-2L receptor proteins were prepared as immuno adhesin sessentially as described in Ashkenazi et al., Proc. Natl. Acad. Sci., 88:10535-10539 (1991). The IgG-receptor fusion molecules were immobilized to the CM5 BIAcore chip, research grade (Pharmacia), using NHS-EDC amine coupling chemistry. The Apo-2L alanine-substituted proteins were serially diluted 2-fold from 500 nM to 15.625 nM in the BIAcore running buffer, PBS/0.05% Tween 20, and passed across the sensor chip surface with immobilized receptor. Specific kinetic binding parameters were used to determine the KD value using the BIAcore evaluation software (according to manufacturer's instructions).

OPG = molecular target: T1, OPG; experiment: BIAcore kinetic binding analysis; conditions: OPGR-IgG immobilized; FIG. 19
Method: as §1

DcR2 = molecular target: T2, DcR2; experiment: BIAcore kinetic binding analysis; conditions: IgG-receptor fusion DcR2 immobilized; significant = >2-fold; FIG. 19
Method: as §1

DR5 = molecular target: T4, DR5 (Homo sapiens, UniProt O14763); experiment: BIAcore kinetic binding analysis; conditions: IgG-receptor fusion DR5 immobilized; significant = >2-fold; FIG. 19
T4 construct: Each of the Apo-2L receptor proteins were prepared as immuno adhesin sessentially as described in Ashkenazi et al; made in house
T4 sequence (O14763 56-184 limits assumed): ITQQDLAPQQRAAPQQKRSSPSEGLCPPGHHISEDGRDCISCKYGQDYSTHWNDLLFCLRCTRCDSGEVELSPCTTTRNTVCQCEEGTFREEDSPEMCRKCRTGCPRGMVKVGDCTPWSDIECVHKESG
Method: as §1

SK-MES-1 cells = experiment: Apoptosis bioassay with crystal violet staining; type: cell-based, human; conditions: 24 hours, FIGS. 17 and 18
Method: SK-MES-1 human lungcarcinomacells (ATCCHTB 58) were culturedin DMEM:Ham'sF-12 (50:50) media supplemented with 10% FBS, 2 mM L-glutamine, 100 U/ml penicillin, and 100 microgram streptomycin. SK-MES-1 cells were seeded in 96-well Falcon tissue culture treated microplates in a volume of 0.1 ml at a density of 4.0×10^4 cells/well and allowed to attach overnight at 37° C. Apoptosis was induced by adding the various Apo-2L substitutional variants or Apo-2L (consisting of amino acids 91-281 of FIG. 1A; referred to as Apo-2L.2) for 24 hours. Following treatment with the test proteins, the media was removed and the wells were stained for 15 minutes with a 0.5% solution of crystal violet in methanol. The cell number was determined by measuring optical density of the dry plates at 540 nm using a SLT 340 ATC plate reader (Salzburg, Austria).

Molecule	change in binding (KD) compared to Apo-2L.2 (DR4)	binding to OPGR-IgG compared to Apo-2L.2 (OPG)	change in binding (KD) compared to Apo-2L.2 (DcR2)	change in binding (KD) compared to Apo-2L.2 (DR5)	increased apoptosis-inducing activity when compared to Apo-2L.2 (SK-MES-1 cells)
D218A: Apo-2 ligand amino acids 91-281 with aspartic acid at position 218 substituted by alanine (protein) MAMMEVQGGPSLGQTCVLIVIFTVLLQSLCVAVTYVYFTNELKQMQDKYSKSGIACFLKEDDSYWDPNDEESMNSPCWQVKWQLRQLVRKMILRTSEETISTVQEKQQNISPLVRERGPQRVAAHITGTRGRSNTLSSPNSKNEKALGRKINSWESSRSGHSFLSNLHLRNGELVIHEKGFYYIYSQTYFRFQEEIKENTKNDKQMVQYIYKYTSYPAPILLMKSARNSCWSKDAEYGLYSIYQGGIFELKENDRIFVSVTNEHLIDMDHEASFFGAFLVG	no significant change	tighter binding	no significant change	no significant change	approximately 3 fold
D269A: Apo-2 ligand amino acids 91-281 with aspartic acid at position 269 substituted by alanine (protein) MAMMEVQGGPSLGQTCVLIVIFTVLLQSLCVAVTYVYFTNELKQMQDKYSKSGIACFLKEDDSYWDPNDEESMNSPCWQVKWQLRQLVRKMILRTSEETISTVQEKQQNISPLVRERGPQRVAAHITGTRGRSNTLSSPNSKNEKALGRKINSWESSRSGHSFLSNLHLRNGELVIHEKGFYYIYSQTYFRFQEEIKENTKNDKQMVQYIYKYTSYPDPILLMKSARNSCWSKDAEYGLYSIYQGGIFELKENDRIFVSVTNEHLIDMAHEASFFGAFLVG	no significant change	tighter binding	no significant change	no significant change	~7 fold
